In paper PMC314469, “Protein Interaction Networks by Proteome Peptide Scanning” (PLoS Biology, 2004):

T1: Boi1 SH3 (BOI1_YEAST), P38041
T1 chain: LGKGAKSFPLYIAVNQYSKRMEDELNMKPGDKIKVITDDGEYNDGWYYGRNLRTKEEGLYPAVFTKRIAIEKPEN

T2: Boi2 SH3 (BOI2_YEAST), P39969
T2 chain: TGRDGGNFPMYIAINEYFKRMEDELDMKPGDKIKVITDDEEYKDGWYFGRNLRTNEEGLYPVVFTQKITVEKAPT

T3: Myo5 SH3 (MYO5_YEAST), Q04439
T3 chain: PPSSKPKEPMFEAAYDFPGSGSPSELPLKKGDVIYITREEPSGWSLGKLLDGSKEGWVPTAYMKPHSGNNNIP

T4: Rvs167 SH3 (RV167_YEAST), P39743
T4 chain: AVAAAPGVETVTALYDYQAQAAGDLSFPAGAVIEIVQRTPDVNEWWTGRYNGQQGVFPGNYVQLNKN

T5: Yfr024 SH3 (LSB3_YEAST), P43603
T5 chain: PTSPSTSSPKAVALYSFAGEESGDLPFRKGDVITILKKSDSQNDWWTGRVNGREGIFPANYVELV

T6: Yhr016c SH3 (YSC84_YEAST), P32793
T6 chain: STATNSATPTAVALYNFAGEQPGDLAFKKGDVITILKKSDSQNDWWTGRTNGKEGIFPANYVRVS


Tests used:
Experiment in all cases: SPOT array
[1] = target: T1, Boi1 SH3 (BOI1_YEAST), P38041
[2] = target: T2, Boi2 SH3 (BOI2_YEAST), P39969
[3] = target: T3, Myo5 SH3 (MYO5_YEAST), Q04439
[4] = target: T4, Rvs167 SH3 (RV167_YEAST), P39743
[5] = target: Sho1 SH3 (SHO1_YEAST), P40073
[6] = target: T5, Yfr024 SH3 (LSB3_YEAST), P43603
[7] = target: T6, Yhr016c SH3 (YSC84_YEAST), P32793

Sequence of Sho1 SH3 (SHO1_YEAST), P40073 (P40073 295-366): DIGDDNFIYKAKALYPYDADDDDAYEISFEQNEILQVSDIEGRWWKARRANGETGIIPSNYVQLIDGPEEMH

Row | Binder | normalised SPOT signal, Boehringer light units (BLU); mean over the file's lines of this peptide [1] | normalised SPOT signal, Boehringer light units (BLU); mean over the file's lines of this peptide [2] | normalised SPOT signal, Boehringer light units (BLU); mean over the file's lines of this peptide [3] | normalised SPOT signal, Boehringer light units (BLU); mean over the file's lines of this peptide [4] | normalised SPOT signal, Boehringer light units (BLU); mean over the file's lines of this peptide [5] | normalised SPOT signal, Boehringer light units (BLU); mean over the file's lines of this peptide [6] | normalised SPOT signal, Boehringer light units (BLU); mean over the file's lines of this peptide [7]
1 | AEIVKLTPKNPFYK [YGL056C 180-193] | 155 | 30.2 | 102 | 99.2 | 39.3 | 2 | 8.4
2 | AERAKKAPSLPEGQ [YJR016C 376-389] | 925 | 42.3 | 389 | 4 | 173 | 44.4 | 0
3 | AFVPKRKPSLPQLA [YLR371W 185-198] | 2730 | 16.6 | 1740 | 294 | 78.9 | 718 | 47.2
4 | AFWWKKNPKTPSDY [YKL189W 13-26] | 110 | 64.4 | 65 | 72.6 | 900 | 303 | 112
5 | AFYYKYYPVEPNSN [YFR020W 150-163] | 418 | 52.6 | 188 | 25.5 | 51.5 | 115 | 74.6
6 | AGHIKTHPNSPTPG [YKL064W 452-465] | 62.8 | 9 | 60.3 | 21.2 | 163 | 0 | 14.3
7 | AGLYKLSPLYPFDV [YLR291C 296-309] | 106 | 0 | 133 | 17.9 | 26.3 | 0 | 17.7
8 | AGMAKTKPDVPLSY [YLR216C 44-57] | 20.7 | 0 | 158 | 61.7 | 52.2 | 87.4 | 27.3
9 | AGPRKYIPRAPAQG [YGL063W 287-300] | 1440 | 39.1 | 195 | 94.4 | 63 | 233 | 45.1
10 | AGQERFAPLAPMYY [YNL093W 69-82] | 33.8 | 30.4 | 101 | 102 | 23.3 | 98.8 | 15.9
11 | AISKKLGPDTPIKV [YOR219C 612-625] | 466 | 3.3 | 176 | 14.9 | 18.4 | 48.8 | 7
12 | AKDYRFNPAIPLRI [YLR073C 11-24] | 1420 | 30.5 | 304 | 534 | 208 | 1400 | 559
13 | AKIDKVSPEDPWVL [YJR158W 273-286] | 54.6 | 15.6 | 248 | 16 | 25.7 | 33.6 | 13.1
14 | AKINKVSPEDPWVL [YDL245C 273-286] | 117 | 12.9 | 121 | 39 | 23.6 | 14.9 | 12.2
15 | AKLHRTKPVKPLSK [YLR430W 1004-1017] | 382 | 4.6 | 502 | 34.5 | 109 | 162 | 42.3
16 | AKLRKFHPPEPYKG [YHR147C 183-196] | 274 | 34.8 | 119 | 48.5 | 133 | 128 | 32.7
